One block for each binder: values may come before it.
How the values were obtained:
[1] = molecular target: T1, yHsp70 (yeast, UniProt P10591 1-642, 5-(and-6)-carboxyfluorescein coupled (in the analytical ultracentrifugation)); experiment: AUC
[2] = molecular target: hHsp90 (human, UniProt P08238 1-724); experiment: SPR
[3] = molecular target: yHsp90 (yeast, UniProt P02829 1-709); experiment: SPR
[4] = molecular target: T1, yHsp70; experiment: SPR

T1 sequence (P10591 whole entry): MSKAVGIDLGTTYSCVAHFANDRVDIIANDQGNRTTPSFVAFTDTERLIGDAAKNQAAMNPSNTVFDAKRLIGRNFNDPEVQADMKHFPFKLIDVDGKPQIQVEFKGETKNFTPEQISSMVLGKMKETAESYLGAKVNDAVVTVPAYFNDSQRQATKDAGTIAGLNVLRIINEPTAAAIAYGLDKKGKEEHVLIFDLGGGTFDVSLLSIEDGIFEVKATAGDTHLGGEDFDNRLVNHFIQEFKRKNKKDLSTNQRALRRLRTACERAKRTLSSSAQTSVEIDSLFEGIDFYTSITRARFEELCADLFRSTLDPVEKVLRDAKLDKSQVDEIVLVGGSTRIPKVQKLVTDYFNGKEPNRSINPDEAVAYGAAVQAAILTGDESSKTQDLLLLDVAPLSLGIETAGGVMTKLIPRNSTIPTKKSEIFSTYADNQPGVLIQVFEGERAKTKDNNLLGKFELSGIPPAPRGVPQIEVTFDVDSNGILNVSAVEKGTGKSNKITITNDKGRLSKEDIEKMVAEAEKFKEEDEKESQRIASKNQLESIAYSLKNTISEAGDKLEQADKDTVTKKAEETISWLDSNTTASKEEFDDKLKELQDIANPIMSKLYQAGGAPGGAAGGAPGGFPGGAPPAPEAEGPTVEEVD
yHsp90, sequence (P02829 whole entry): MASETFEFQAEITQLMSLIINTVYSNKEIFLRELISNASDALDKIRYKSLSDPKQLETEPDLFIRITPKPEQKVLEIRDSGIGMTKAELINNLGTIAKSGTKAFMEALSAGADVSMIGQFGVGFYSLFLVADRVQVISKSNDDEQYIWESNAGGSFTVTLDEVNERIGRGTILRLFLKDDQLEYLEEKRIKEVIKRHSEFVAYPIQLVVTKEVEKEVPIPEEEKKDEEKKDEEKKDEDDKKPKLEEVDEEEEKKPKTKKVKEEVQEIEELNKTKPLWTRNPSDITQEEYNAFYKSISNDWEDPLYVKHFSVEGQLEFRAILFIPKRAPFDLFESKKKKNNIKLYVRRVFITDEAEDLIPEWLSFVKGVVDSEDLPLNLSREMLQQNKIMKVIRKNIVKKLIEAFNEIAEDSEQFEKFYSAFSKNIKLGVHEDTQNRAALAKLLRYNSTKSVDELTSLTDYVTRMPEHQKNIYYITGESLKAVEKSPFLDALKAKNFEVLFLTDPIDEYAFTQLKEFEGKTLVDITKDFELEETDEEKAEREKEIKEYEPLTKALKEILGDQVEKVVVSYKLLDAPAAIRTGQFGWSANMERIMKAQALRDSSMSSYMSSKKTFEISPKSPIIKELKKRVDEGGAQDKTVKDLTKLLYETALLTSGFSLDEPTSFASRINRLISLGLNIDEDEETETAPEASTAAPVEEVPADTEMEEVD
hHsp90, sequence (P08238 whole entry): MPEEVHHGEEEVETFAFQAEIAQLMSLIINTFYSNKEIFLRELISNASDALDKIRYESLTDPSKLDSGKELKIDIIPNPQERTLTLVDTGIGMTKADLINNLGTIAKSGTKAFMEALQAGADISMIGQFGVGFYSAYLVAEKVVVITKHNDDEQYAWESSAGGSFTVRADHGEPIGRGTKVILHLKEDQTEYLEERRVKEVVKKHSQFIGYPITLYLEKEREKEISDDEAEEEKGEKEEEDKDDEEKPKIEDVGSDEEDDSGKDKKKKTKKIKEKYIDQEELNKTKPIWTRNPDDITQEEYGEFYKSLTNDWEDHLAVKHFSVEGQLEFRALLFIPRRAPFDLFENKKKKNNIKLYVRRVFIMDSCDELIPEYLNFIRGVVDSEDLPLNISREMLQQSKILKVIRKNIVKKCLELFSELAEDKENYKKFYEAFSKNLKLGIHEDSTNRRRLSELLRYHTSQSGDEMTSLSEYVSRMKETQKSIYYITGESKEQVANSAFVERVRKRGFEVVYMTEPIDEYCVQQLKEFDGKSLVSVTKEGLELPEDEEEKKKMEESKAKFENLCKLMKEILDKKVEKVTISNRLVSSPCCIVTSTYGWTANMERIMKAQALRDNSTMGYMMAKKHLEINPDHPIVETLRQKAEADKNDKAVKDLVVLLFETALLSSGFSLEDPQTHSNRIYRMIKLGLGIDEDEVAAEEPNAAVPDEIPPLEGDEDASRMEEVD

B1: Sti1 (natural protein)
chain: MSLTADEYKQQGNAAFTAKDYDKAIELFTKAIEVSETPNHVLYSNRSACYTSLKKFSDALNDANECVKINPSWSKGYNRLGAAHLGLGDLDEAESNYKKALELDASNKAAKEGLDQVHRTQQARQAQPDLGLTQLFADPNLIENLKKNPKTSEMMKDPQLVAKLIGYKQNPQAIGQDLFTDPRLMTIMATLMGVDLNMDDINQSNSMPKEPETSKSTEQKKDAEPQSDSTTSKENSSKAPQKEESKESEPMEVDEDDSKIEADKEKAEGNKFYKARQFDEAIEHYNKAWELHKDITYLNNRAAAEYEKGEYETAISTLNDAVEQGREMRADYKVISKSFARIGNAYHKLGDLKKTIEYYQKSLTEHRTADILTKLRNAEKELKKAEAEAYVNPEKAEEARLEGKEYFTKSDWPNAVKAYTEMIKRAPEDARGYSNRAAALAKLMSFPEAIADCNKAIEKDPNFVRAYIRKATAQIAVKEYASALETLDAARTKDAEVNNGSSAREIDQLYYKASQQRFQPGTSNETPEETYQRAMKDPEVAAIMQDPVMQSILQQAQQNPAALQEHMKNPEVFKKIQTLIAAGIIRTGR
- binding result [1]: binds
- binding result [2]: binds
- fold stronger binding than to hHsp90 [3]: ~2 fold

B2: Sti1 T37E (natural protein)
chain: MSLTADEYKQQGNAAFTAKDYDKAIELFTKAIEVSEEPNHVLYSNRSACYTSLKKFSDALNDANECVKINPSWSKGYNRLGAAHLGLGDLDEAESNYKKALELDASNKAAKEGLDQVHRTQQARQAQPDLGLTQLFADPNLIENLKKNPKTSEMMKDPQLVAKLIGYKQNPQAIGQDLFTDPRLMTIMATLMGVDLNMDDINQSNSMPKEPETSKSTEQKKDAEPQSDSTTSKENSSKAPQKEESKESEPMEVDEDDSKIEADKEKAEGNKFYKARQFDEAIEHYNKAWELHKDITYLNNRAAAEYEKGEYETAISTLNDAVEQGREMRADYKVISKSFARIGNAYHKLGDLKKTIEYYQKSLTEHRTADILTKLRNAEKELKKAEAEAYVNPEKAEEARLEGKEYFTKSDWPNAVKAYTEMIKRAPEDARGYSNRAAALAKLMSFPEAIADCNKAIEKDPNFVRAYIRKATAQIAVKEYASALETLDAARTKDAEVNNGSSAREIDQLYYKASQQRFQPGTSNETPEETYQRAMKDPEVAAIMQDPVMQSILQQAQQNPAALQEHMKNPEVFKKIQTLIAAGIIRTGR
- binding result [4]: binds

B3: Sti1 S227E (natural protein)
chain: MSLTADEYKQQGNAAFTAKDYDKAIELFTKAIEVSETPNHVLYSNRSACYTSLKKFSDALNDANECVKINPSWSKGYNRLGAAHLGLGDLDEAESNYKKALELDASNKAAKEGLDQVHRTQQARQAQPDLGLTQLFADPNLIENLKKNPKTSEMMKDPQLVAKLIGYKQNPQAIGQDLFTDPRLMTIMATLMGVDLNMDDINQSNSMPKEPETSKSTEQKKDAEPQEDSTTSKENSSKAPQKEESKESEPMEVDEDDSKIEADKEKAEGNKFYKARQFDEAIEHYNKAWELHKDITYLNNRAAAEYEKGEYETAISTLNDAVEQGREMRADYKVISKSFARIGNAYHKLGDLKKTIEYYQKSLTEHRTADILTKLRNAEKELKKAEAEAYVNPEKAEEARLEGKEYFTKSDWPNAVKAYTEMIKRAPEDARGYSNRAAALAKLMSFPEAIADCNKAIEKDPNFVRAYIRKATAQIAVKEYASALETLDAARTKDAEVNNGSSAREIDQLYYKASQQRFQPGTSNETPEETYQRAMKDPEVAAIMQDPVMQSILQQAQQNPAALQEHMKNPEVFKKIQTLIAAGIIRTGR
- binding result [4]: binds

B4: Sti1 S410E (natural protein)
chain: MSLTADEYKQQGNAAFTAKDYDKAIELFTKAIEVSETPNHVLYSNRSACYTSLKKFSDALNDANECVKINPSWSKGYNRLGAAHLGLGDLDEAESNYKKALELDASNKAAKEGLDQVHRTQQARQAQPDLGLTQLFADPNLIENLKKNPKTSEMMKDPQLVAKLIGYKQNPQAIGQDLFTDPRLMTIMATLMGVDLNMDDINQSNSMPKEPETSKSTEQKKDAEPQSDSTTSKENSSKAPQKEESKESEPMEVDEDDSKIEADKEKAEGNKFYKARQFDEAIEHYNKAWELHKDITYLNNRAAAEYEKGEYETAISTLNDAVEQGREMRADYKVISKSFARIGNAYHKLGDLKKTIEYYQKSLTEHRTADILTKLRNAEKELKKAEAEAYVNPEKAEEARLEGKEYFTKEDWPNAVKAYTEMIKRAPEDARGYSNRAAALAKLMSFPEAIADCNKAIEKDPNFVRAYIRKATAQIAVKEYASALETLDAARTKDAEVNNGSSAREIDQLYYKASQQRFQPGTSNETPEETYQRAMKDPEVAAIMQDPVMQSILQQAQQNPAALQEHMKNPEVFKKIQTLIAAGIIRTGR
- fold increase in KD against the wild type [4]: ~2 fold

B5: Sti1 S258E (natural protein)
chain: MSLTADEYKQQGNAAFTAKDYDKAIELFTKAIEVSETPNHVLYSNRSACYTSLKKFSDALNDANECVKINPSWSKGYNRLGAAHLGLGDLDEAESNYKKALELDASNKAAKEGLDQVHRTQQARQAQPDLGLTQLFADPNLIENLKKNPKTSEMMKDPQLVAKLIGYKQNPQAIGQDLFTDPRLMTIMATLMGVDLNMDDINQSNSMPKEPETSKSTEQKKDAEPQSDSTTSKENSSKAPQKEESKESEPMEVDEDDEKIEADKEKAEGNKFYKARQFDEAIEHYNKAWELHKDITYLNNRAAAEYEKGEYETAISTLNDAVEQGREMRADYKVISKSFARIGNAYHKLGDLKKTIEYYQKSLTEHRTADILTKLRNAEKELKKAEAEAYVNPEKAEEARLEGKEYFTKSDWPNAVKAYTEMIKRAPEDARGYSNRAAALAKLMSFPEAIADCNKAIEKDPNFVRAYIRKATAQIAVKEYASALETLDAARTKDAEVNNGSSAREIDQLYYKASQQRFQPGTSNETPEETYQRAMKDPEVAAIMQDPVMQSILQQAQQNPAALQEHMKNPEVFKKIQTLIAAGIIRTGR
- binding result [4]: binds

B8: Hop Y354E (natural protein)
chain: not shown
- fold increase in KD against the wild type [4]: ~2 fold

More lines, now with the values ahead:

- binding result [1]: binds
B6: Sti1 S95E (natural protein)
chain: MSLTADEYKQQGNAAFTAKDYDKAIELFTKAIEVSETPNHVLYSNRSACYTSLKKFSDALNDANECVKINPSWSKGYNRLGAAHLGLGDLDEAEENYKKALELDASNKAAKEGLDQVHRTQQARQAQPDLGLTQLFADPNLIENLKKNPKTSEMMKDPQLVAKLIGYKQNPQAIGQDLFTDPRLMTIMATLMGVDLNMDDINQSNSMPKEPETSKSTEQKKDAEPQSDSTTSKENSSKAPQKEESKESEPMEVDEDDSKIEADKEKAEGNKFYKARQFDEAIEHYNKAWELHKDITYLNNRAAAEYEKGEYETAISTLNDAVEQGREMRADYKVISKSFARIGNAYHKLGDLKKTIEYYQKSLTEHRTADILTKLRNAEKELKKAEAEAYVNPEKAEEARLEGKEYFTKSDWPNAVKAYTEMIKRAPEDARGYSNRAAALAKLMSFPEAIADCNKAIEKDPNFVRAYIRKATAQIAVKEYASALETLDAARTKDAEVNNGSSAREIDQLYYKASQQRFQPGTSNETPEETYQRAMKDPEVAAIMQDPVMQSILQQAQQNPAALQEHMKNPEVFKKIQTLIAAGIIRTGR

- binding result [4]: binds
B7: Hop S16E (natural protein)
chain: not shown

— article PMC4328751 (EMBO Reports, 2014)
